Data published in patent publication US20120237528A1.

Target: Innovin, lyophilized recombinant human tissue factor combined with phospholipids (human) (UniProt P13726)
Test: cell-based or functional assay

Chain of Innovin, lyophilized recombinant human tissue factor combined with phospholipids (human) (P13726 33-295 limits assumed): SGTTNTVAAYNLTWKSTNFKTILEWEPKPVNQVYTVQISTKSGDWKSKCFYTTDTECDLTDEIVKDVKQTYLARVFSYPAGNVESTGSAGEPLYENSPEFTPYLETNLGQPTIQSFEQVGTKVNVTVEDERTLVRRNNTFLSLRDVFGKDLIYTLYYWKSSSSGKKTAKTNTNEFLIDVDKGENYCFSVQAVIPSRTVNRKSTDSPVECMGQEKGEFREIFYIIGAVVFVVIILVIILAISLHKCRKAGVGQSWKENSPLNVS

## CNTO 860, humanized form of the antibody 5G9, human IgG1/Kappa
  T½ Max (seconds), coagulation of human plasma: > 900 s
  coagulation time: > 1800 s
